Data taken from publication PMC9126950.
Several values for one entry are separate records, joined by “and”; a condition that tells them apart may be missing. Equal values may be shown once.

Target: VHH-72-C13 (llama)
Experiment: electrochemical titration (differential pulse voltammetry)

VHH-72-C13 (llama), sequence (VHH, as listed by the source): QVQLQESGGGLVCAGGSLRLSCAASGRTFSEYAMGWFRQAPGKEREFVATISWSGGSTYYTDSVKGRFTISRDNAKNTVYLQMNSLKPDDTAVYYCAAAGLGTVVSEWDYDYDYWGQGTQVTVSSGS

## SARS-CoV-2 spike receptor binding domain (RBD), recombinant (from UniProt P0DTC2 319-541) (domain or fragment)
  half saturation point (Langmuir isotherm): 3.7 nM and 7.5 nM
